Measurements as given in article PMC8591604 (2021).
[ ]: non-standard residue; d: D form. pY = N[C@@H](Cc1ccc(OP(=O)(O)O)cc1)C(=O)O

B1: P8E4W5, P8 analogue with E at position +4 and W at position +5 (peptide)
chain: Ac-LN[pY]IDLEW-NH2
SMILES: CC[C@H](C)[C@H](NC(=O)[C@H](Cc1ccc(OP(=O)(O)O)cc1)NC(=O)[C@H](CC(N)=O)NC(=O)[C@H](CC(C)C)NC(C)=O)C(=O)N[C@@H](CC(=O)O)C(=O)N[C@@H](CC(C)C)C(=O)N[C@@H](CCC(=O)O)C(=O)N[C@@H](Cc1c[nH]c2ccccc12)C(N)=O
B2: P8F5, P8 analogue with F at position +5 (peptide)
chain: Ac-LN[pY]IDLDF-NH2
SMILES: CC[C@H](C)[C@H](NC(=O)[C@H](Cc1ccc(OP(=O)(O)O)cc1)NC(=O)[C@H](CC(N)=O)NC(=O)[C@H](CC(C)C)NC(C)=O)C(=O)N[C@@H](CC(=O)O)C(=O)N[C@@H](CC(C)C)C(=O)N[C@@H](CC(=O)O)C(=O)N[C@@H](Cc1ccccc1)C(N)=O
B3: P8W5, P8 analogue with W at position +5 (peptide)
chain: Ac-LN[pY]IDLDW-NH2
B4: P8, unlabeled IRS-1 pY1172 peptide, residues −2 to +5 (peptide)
peptide: Ac-LN[pY]IDLDL-NH2
SMILES: CC[C@H](C)[C@H](NC(=O)[C@H](Cc1ccc(OP(=O)(O)O)cc1)NC(=O)[C@H](CC(N)=O)NC(=O)[C@H](CC(C)C)NC(C)=O)C(=O)N[C@@H](CC(=O)O)C(=O)N[C@@H](CC(C)C)C(=O)N[C@@H](CC(=O)O)C(=O)N[C@@H](CC(C)C)C(N)=O

Legend:
[1] = target: T1, N-SH2 domain of SHP2 (residues 2–111) (human, UniProt Q06124 2-111); test: FP
T1 chain: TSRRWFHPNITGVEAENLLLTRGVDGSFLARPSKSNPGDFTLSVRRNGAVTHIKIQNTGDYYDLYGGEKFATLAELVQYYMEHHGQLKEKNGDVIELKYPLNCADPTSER

[2] = target: T1, N-SH2 domain of SHP2 (residues 2–111); test: FP
[3] = target: T1, N-SH2 domain of SHP2 (residues 2–111); test: FP; displacement of CF-P9W5
[4] = target: T1, N-SH2 domain of SHP2 (residues 2–111); test: FP; displacement of CF-P9W5

| Binder | EC50 [1] [nM] | Kd [2] [nM] | EC50 [3] [nM] | Kd [4] [nM] |
| --- | --- | --- | --- | --- |
| B1 | 11 | 4 |  |  |
| B2 | 16 | 7 |  |  |
| B3 | 5.4 |  |  |  |
| B4 |  |  | 47 | 22 |
